Reference: article PMC5428533

How the values were obtained:
[1] = molecular target: complement component C9 (human) (UniProt P02748); assay: MST; FH (6.67 µM) or C9 (15.15 µM) labelled with NT-647 RED-NHS; non-labelled CbiA diluted 1:2 from 76 to 0.0002 µM; fluid phase, 20% LED power, 80% MST power, 30 s, Monolith NT.115, room temperature, triplicate
[2] = molecular target: complement regulator Factor H (FH) (human) (UniProt P08603); assay: as above
Chain of UniProt P08603 (P08603 19-1231): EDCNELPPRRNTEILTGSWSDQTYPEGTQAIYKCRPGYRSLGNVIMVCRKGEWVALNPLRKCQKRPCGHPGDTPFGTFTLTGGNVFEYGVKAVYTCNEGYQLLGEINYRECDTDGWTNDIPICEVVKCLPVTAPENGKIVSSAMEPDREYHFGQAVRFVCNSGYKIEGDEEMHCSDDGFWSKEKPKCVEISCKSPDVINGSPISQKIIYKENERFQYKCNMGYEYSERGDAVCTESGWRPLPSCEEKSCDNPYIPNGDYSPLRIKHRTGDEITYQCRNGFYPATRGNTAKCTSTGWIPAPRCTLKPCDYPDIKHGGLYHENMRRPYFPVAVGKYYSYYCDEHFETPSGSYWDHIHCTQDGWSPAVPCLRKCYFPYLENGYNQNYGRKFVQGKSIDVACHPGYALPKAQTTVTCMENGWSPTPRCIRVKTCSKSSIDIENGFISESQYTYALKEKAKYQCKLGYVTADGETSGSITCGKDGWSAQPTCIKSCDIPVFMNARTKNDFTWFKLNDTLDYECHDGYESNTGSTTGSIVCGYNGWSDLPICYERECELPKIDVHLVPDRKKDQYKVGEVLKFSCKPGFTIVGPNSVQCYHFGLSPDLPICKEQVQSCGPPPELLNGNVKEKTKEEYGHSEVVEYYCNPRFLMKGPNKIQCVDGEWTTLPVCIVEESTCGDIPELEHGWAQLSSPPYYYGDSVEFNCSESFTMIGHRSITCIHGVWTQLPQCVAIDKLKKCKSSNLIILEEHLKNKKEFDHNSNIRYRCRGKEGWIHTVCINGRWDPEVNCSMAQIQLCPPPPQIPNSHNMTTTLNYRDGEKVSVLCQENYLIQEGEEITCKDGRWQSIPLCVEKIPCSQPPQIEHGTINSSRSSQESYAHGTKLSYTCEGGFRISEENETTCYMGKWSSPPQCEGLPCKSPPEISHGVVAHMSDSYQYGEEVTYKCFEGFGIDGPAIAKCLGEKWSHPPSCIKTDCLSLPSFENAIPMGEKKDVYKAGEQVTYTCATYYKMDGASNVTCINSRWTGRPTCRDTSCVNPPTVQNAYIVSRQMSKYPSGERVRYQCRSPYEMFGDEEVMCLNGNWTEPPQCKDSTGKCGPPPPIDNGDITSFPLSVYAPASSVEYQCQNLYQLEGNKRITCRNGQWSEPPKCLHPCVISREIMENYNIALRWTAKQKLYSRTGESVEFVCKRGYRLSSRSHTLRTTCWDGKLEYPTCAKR

Chain of UniProt P02748 (P02748 22-559): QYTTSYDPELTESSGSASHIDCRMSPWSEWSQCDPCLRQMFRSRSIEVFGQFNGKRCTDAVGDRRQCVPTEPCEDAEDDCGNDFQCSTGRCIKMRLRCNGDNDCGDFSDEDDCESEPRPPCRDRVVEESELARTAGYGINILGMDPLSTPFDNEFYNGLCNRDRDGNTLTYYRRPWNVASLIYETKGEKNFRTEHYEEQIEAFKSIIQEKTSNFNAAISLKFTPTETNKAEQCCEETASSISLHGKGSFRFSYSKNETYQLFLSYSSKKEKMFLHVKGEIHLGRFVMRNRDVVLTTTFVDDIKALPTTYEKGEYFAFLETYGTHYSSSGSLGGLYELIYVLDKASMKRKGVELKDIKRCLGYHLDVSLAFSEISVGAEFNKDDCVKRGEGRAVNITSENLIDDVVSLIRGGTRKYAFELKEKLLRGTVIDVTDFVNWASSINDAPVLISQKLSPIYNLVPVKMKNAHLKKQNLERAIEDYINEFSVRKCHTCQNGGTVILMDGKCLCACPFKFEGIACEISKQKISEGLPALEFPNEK

Substance: CbiA (complement binding and inhibitory protein A) of B. miyamotoi HT31, His6-tagged recombinant protein (natural protein)
- Kd [1]: 0.0524 µM
- Kd [2]: 6.59 µM
